Results published in the nanobody polyreactivity screen of Harvey et al. (2022).

test: yeast display, Sf9 membrane polyspecificity reagent, FACS + sequencing; frameworks hold sequencing errors
Outline: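 Genes from sorted yeast were amplified by colony PCR, read by MiSeq 2 × 250 sequencing and filtered on CDR length. These cells carried a synthetic nanobody library in Saccharomyces cerevisiae BJ5465 and were sorted by FACS into low and high (top ~1%) gates on anti-HA and streptavidin fluorescence. Polyreactivity is labelled according to the gate of origin.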

Row | Sequence | polyreactivity (PSR sort gate)
1 | QVQHVESGAGLVQAGGSLRLRCAASGIIFYYYAMGWYRQAPGKERELVASISRSGTDTYYADSVKGRFTISRDNAKYTVYLQMNSLIPEDTAVYDCAAKLYSKRTGARMNYWGQGTQVTVSS | high polyreactivity
2 | QVQHVESGAGLVQAGGSLRLSCAASGRIFSRYAMGWYRQAPGKERELVAAISERGASTYYADSVKGRFTISRDNAKNTVYLQMNSLKPEDTAVYYCAAKRGSGYGYWGQGTQVTVSS | high polyreactivity
3 | QVQHVESGGALVQAGGSHRLSCAASGLTIWRYAKGWYRLATGKERELVAAINYNGVRTYYADSVKGRFTISRDNAKNTVYLQMNSLKQEDTAVYYCAAKPGYYGYWGQGTQVTVSS | high polyreactivity
4 | QVQHVESGGCLVQAGGSLRLSCAASGSIFSYYDMGWYRHAPGKERELVAAIRGSGGITYADSVKGRFTISRDNAKNTVYLQMNSLKPEETAVYYCAADQYYRSDYYYWGQGTQVTVSS | low polyreactivity
5 | QVQHVESGGCLVQAGGSLRLSCAASGYTFRYYAMGWYRQAPGKERELVAAINWSGCSTYYADSVKGRFTISRDNAKNTVYLHMNSLKPEDTAVYYCAADPDGDVDIDYDYWGQGTQVTVSS | low polyreactivity
6 | QVQHVESGGCLVQAGGSLRLSCASSGRTFARYAMGWSRQPPGKDSELVAAITRRGGSTYYADSVKGRFTLSRDNAKNTVSLQMNSLKPEDTAVYYCAAHYRNFGIGAYEYWGKGTQVTVSS | high polyreactivity
7 | QVQHVESGGGIVQAGGSLRLSCAASGIIFIGNAMGWYRQAPGKERELVAAITYTGGSTYYADSVKGRFTISRDNAKNTVYLQMNSLKPEDTAVYYCAVDRTHLEDDYWGQGTQVTVSS | low polyreactivity
8 | QVQHVESGGGIVQAGGSLRLSCAASGIIFSDYAMGWYRQARGKERELVATITRSVRTSYADSVKGRFTISRDNAKNTVYLQMNSLKPEDTAVYYCYADVVGAVIAYDYWGQGTQVTVSS | low polyreactivity
9 | QVQHVESGGGIVQAGGSLRLSCAASGLTITAYVMGWYRQAPGKERELVAAIRNSGGSTYYADSVKGRFTISRDNAKNTVYLQMISLKPEDTAVYYCAKQTSYWSRGYDYWGQGTQVTVSS | low polyreactivity
10 | QVQHVESGGGLDQAGGSLRLSCAASGFTFVFNAMGWYRQAPGKERELVATITNGGSTYYADSVKGRFTISRDNAKNTVYLQMNSLKPEDTAVYYCAKTWFAYRDYDFWGQGTQVTVSS | high polyreactivity
11 | QVQHVESGGGLDQAGGSLRLSCAASGRIFYANAMGWYRQAPRKERELVAAIDWSGGSTYYADSVKGRFTISRDNAKNTVYLQMNSLKPEDTAVYYCAGPYHYYGNSVGYADYVYWGQGTQVTVSS | low polyreactivity
12 | QVQHVESGGGLLQAGGSLRLSCAASVSTLSKNAMGWYRQAPGKERELVAAITRRGGSTSYADSVKGRFTISRDNAKNTVYFQMNSLKPEDTAVYYCNAVSKYDYGYWGQGTQVTVSS | high polyreactivity
13 | QVQHVESGGGLLQAGGSLRLTCTASRSIFPYYAMGWYRQATGKERELVAAISSSGARTYYADSVKGRFTISRDNAKNTVYLQMNSLKPEDTGFYYCNSDTIRYRTYGRYAWYNYWGQGTQVTVSS | high polyreactivity
14 | QVQHVESGGGLVHAGGSLRLSCAASGSTFRPYPRGWSRQAPGKERELVAAIRKIGGRTYYADSVKGRFTISRDNAKNTVYLQMNSLKPEDTAVYYCNKRIGGGVHAYNYWGQGTQVTVSS | low polyreactivity
15 | QVQHVESGGGLVQAGCSLRLSCAASGLIFGLYAMGWFRPAPGKERELVAAISYRTDSTYADSVKGRFTISRDNAKNTVYLQMNSLKPEDNAVYYCAADLRVSVRYYYWGHGTQVTVSS | low polyreactivity
16 | QVQHVESGGGLVQAGGRLRLSCAASGIIFQYYAMGSYRQAPGKERESVAGITYPGGSTYYADSVKGRFTISRDNAKNTVYLPKNSLQPEDTAVYFCNAVGVSARYWRQLPSYRYDYWGQGTQVTVSS | low polyreactivity

Row | Sequence | polyreactivity (PSR sort gate)
17 | QVQHVESGGGLVQAGGSHRLSCAASGRIFPWNTMGRYRQAPGKERELVAGITSGGSTNYADSVKGRFTISRDNAKNTVYLQMKSLKPEDTAVYYCNRDSVGYDYWGQGTQVTVSS | low polyreactivity
18 | QVQHVESGGGLVQAGGSHRLSSAASGSTFRGYVMGWYRQAPGKERELVAVITTSDGDTYYADSVKGRFTNSRDNAKNTVYLQMNSLKPEDTAVYYCNADLYSYYGDNYWGQGTQVTVSS | low polyreactivity
19 | QVQHVESGGGLVQAGGSLLLSSAASGRTFLVNAMGWNRQAPGKEREFVAAITSRSGRTNYADSVKGRFTISRDTAKNNVYLQMNSLKPEDTAVYYCNAEGYTVKYWYSRYDYWGQGTQVTVSS | high polyreactivity
20 | QVQHVESGGGLVQAGGSLRIRCAASGSIFDLNAMGWYRPAPGKEMELVAASSSGGGTYYADSVKGRFTISRDNAKKTVYLLMISLKPEDTALSDCNRVTRWTYNYWGQGSQVTVSS | high polyreactivity
21 | QVQHVESGGGLVQAGGSLRLICAASGSTFGYNAMGWYRHAPGKERELVARITSSGGATYYADSVKWRFTISRDNAKHTVYLLKNSLKPEDTAVYYCAAGYPYRAVYRYYYWGQGTQVTVSS | high polyreactivity
22 | QVQHVESGGGLVQAGGSLRLSCAASARIFYWYVMGWSRQAPGKERELVASISRSGGSTYYADSVKGRFTISRDNAKNTVYVQMNSLKPEDTAVYYCNAGSVYTVSLPGHPYDYWGQGTQVTVSS | low polyreactivity
23 | QVQHVESGGGLVQAGGSLRLSCAASGFIFDNYAMGWYRQSPGKERELVAAISRSGGSTYYADSVKGRFTISRDNAKTTVYLQMNSLKPEDTAVYYCATSGPRGWSLHDYWGQGTQVTVSS | high polyreactivity
24 | QVQHVESGGGLVQAGGSLRLSCAASGFIFPNNAMGWYLQAPGKERELVARISYGGGDTHYADSVKGRFTISRDNAKNTVSLQMNSLKPEDTAVYYCAVKVGQDDYWGQGTQVTVSS | low polyreactivity
25 | QVQHVESGGGLVQAGGSLRLSCAASGFIFRRYVMGWYRQAPGKERELVAAISYGGGSTYYADSVKGRFTISRDNAKNTVYLQMNCLKPEDTAVYYCNAVSYNLAAYDYWGQGTQVTVSS | high polyreactivity
26 | QVQHVESGGGLVQAGGSLRLSCAASGFIFRYYAMGWYRQAPGKERELVAAITWNGGSTYYADSVKGRFTISRDNAKNTVYLQLNSLKPEDTAVYYCADVPYTPSPYTYGYWGQGTQVSVSS | high polyreactivity
27 | QVQHVESGGGLVQAGGSLRLSCAASGFIFSNNAMGRYRQAPGKERELVAAITSSGGRTYYADSVKGRFTISRDNAKNTVYLQMNSLKPEDTAVYYCAAVWRTSVWTKYGYWGQGTQVTVSS | high polyreactivity
28 | QVQHVESGGGLVQAGGSLRLSCAASGFIFVRNTMGWYRQAPGKERELVATITRRGGSTSYADSVKGRFTISRDNAKNTVYLQMNSLKPEDTAVYFCNARSVYGSKQEEYWGQGTQVTVSS | high polyreactivity
29 | QVQHVESGGGLVQAGGSLRLSCAASGFIIQGNAMGWYRQAPGKERELVAAISSSVSTYYADSVKGRFTISRDNAKNTVYLQMNSLKPEDTAVYYCNAGFPLSLWLGDYWGQGTQVTVSS | low polyreactivity
30 | QVQHVESGGGLVQAGGSLRLSCAASGFTFGSYAMGWYRQAPGKERELVARISSDGSTNYADSVKGRFTISRDNPKNTVYLQMNSLKPEDTAVYYCAADRVVEYADYYYWGQGTQVTVSS | low polyreactivity
31 | QVQHVESGGGLVQAGGSLRLSCAASGFTFNLYAMGWYRQAPGKERELVAAINWSGGTYYADSVKGRFTISRDNAKNTVYLQMNSLKPEYTAVYYCAADFPYTPWSYHHHVWSPDFDYWGQGTQVTVSS | low polyreactivity
32 | QVQHVESGGGLVQAGGSLRLSCAASGFTFQSYPMGWYRQAPGKERELVAAITRRGTRTYYADSVKGRFTISRDNAKNTVYLQLNSLKPEDTAVYYCAARSPKLEFDYWGQGTQVTVSS | high polyreactivity
